We go through two molecules from publication PMC11564870.

Series [1] deals with mOct4 POU;mSox2 HMG (mouse;mouse, UniProt P20263;P48432 131-282;41-119, |). Description: EMSA. For orientation: A gel shift assay detects complexes by their altered migration in electrophoresis.
For series [2], the target named is T1, Monbr Sox-like HMG (Monosiga brevicollis, UniProt A9VCR9 107-175).
T1 sequence: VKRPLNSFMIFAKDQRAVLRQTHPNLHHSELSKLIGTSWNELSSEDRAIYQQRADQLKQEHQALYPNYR
The series is described as follows: EMSA.

mOct4 POU;mSox2 HMG, sequence (P20263 131-282, chain 1 of 2): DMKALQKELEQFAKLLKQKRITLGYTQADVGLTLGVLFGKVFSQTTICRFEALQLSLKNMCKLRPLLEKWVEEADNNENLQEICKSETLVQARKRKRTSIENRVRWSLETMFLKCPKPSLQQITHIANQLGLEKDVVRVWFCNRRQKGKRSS
mOct4 POU;mSox2 HMG, sequence (P48432 41-119, chain 2 of 2): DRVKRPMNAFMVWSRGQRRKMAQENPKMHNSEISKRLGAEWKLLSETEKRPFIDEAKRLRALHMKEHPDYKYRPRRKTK

B1: SoxOct canonical (dsDNA)
DNA 1: GCGGCATTGTCATGCAAATCGGCGG
DNA 2: CCGCCGATTTGCATGACAATGCCGC
Take B1: in series [1], the binding result is “binds”.

B2: Sox consensus (dsDNA)
DNA 1: GGCGGCGGCATTGTCCGGCGCGCGG
DNA 2: CCGCGCGCCGGACAATGCCGCCGCC
For B2, in series [2], the binding result is listed as “no binding”.
